Substitutions are numbered along the chain they refer to.

First the molecules themselves.
B1: mAb0122 (antibody, human IgG4 S228P, kappa)
heavy: not shown
light: EIVLTQSPATLSLSPGERATLSCRASQGISDYLHWYQQKPGEAPRLLIKYTSQPATGIPARFSGSGSGTDFTLTISSLEPEDVGVYYCQNGHSFPLTFGQGTKLELKRTVAAPSVFIFPPSDEQLKSGTASVVCLLNNFYPREAKVQWKVDNALQSGNSQESVTEQDSKDSTYSLSSTLTLSKADYEKHKVYACEVTHQGLSSPVTKSFNRGEC
notes: humanized 11F2 variant, first round
B2: mAb0125 (antibody, human IgG4 S228P, kappa, V domains shown)
VH: DVQLQESGPGLVEPSQTLSLTCTVSGYSITSDSAWSWIRQFPGKKLEWMGYIQYSGSTNYNPSLKSRVTISRDTSKNQFSLKLSSVTAEDTAVYYCARSVNYYGNSFAVGYWGQGTSVTVSS
VL: EIVLTQSPATLSLSPGERATLSCRASQGISDYLHWYQQKPGEAPRLLIKYTSQPATGIPARFSGSGSGTDFTLTISSLEPEDVAVYYCQNGHSFPLTFGAGTKLELKR
notes: as for B1
B3: mAb0123 (antibody, human IgG4 S228P, kappa, V domains shown)
VH: B2 VH
VL: B2 VL with D31S, A84G
notes: as for B1
B4: mAb0124 (antibody, human IgG4 S228P, kappa, V domains shown)
VH: B2 VH
VL: B2 VL with E42Q, A84G
notes: as for B1
B5: mAb0130 (antibody, human IgG4 S228P, kappa, V domains shown)
VH: B2 VH
VL: B2 VL with V83F, A84G
notes: as for B1
B6: mAb0126 (antibody, human IgG4 S228P, kappa, V domains shown)
VH: B2 VH
VL: B2 VL with I29V, A84G
notes: as for B1
B7: mAb0128 (antibody, human IgG4 S228P, kappa, V domains shown)
VH: B2 VH
VL: B2 VL with P15A, P40S, A84G
notes: as for B1
B8: mAb0129 (antibody, human IgG4 S228P, kappa, V domains shown)
VH: B2 VH
VL: B2 VL with T51A, A84G
notes: as for B1
B9: mAb0077(OA) (antibody, human IgG4 S228P, kappa)
heavy: not shown
light: DIVMTQSPATLSVTAGDRVSLSCRASQGISDYLHWYQQKSHESPRLLIKYTSQPVSGIPSRFSGSGSGSEFTLSINSVEPEDVGVYYCQNGHSFPLTFGAGTKLELKRTVAAPSVFIFPPSDEQLKSGTASVVCLLNNFYPREAKVQWKVDNALQSGNSQESVTEQDSKDSTYSLSSTLTLSKADYEKHKVYACEVTHQGLSSPVTKSFNRGEC
chain: VESKYGPPCPPCPAPEFLGGPSVFLFPPKPKDTLMISRTPEVTCVVVDVSQEDPEVQFNWYVDGVEVHNAKTKPREEQFNSTYRVVSVLTVLHQDWLNGKEYKCKVSNKGLPSSIEKTISKAKGQPREPQVYTLPPSQEEMTKNQVSLTCLVKGFYPSDIAVEWESNGQPENNYKTTPPVLDSDGSFLLYSKLTVDKSRWQEGNVFSCSVMHEALHNHYTQKSLSLSLGK
notes: one-armed (OA) antibody, constant domain type E (Duobody); murine VL/VH; also called monovalent 11F2
B10: mAb0138(OA) (antibody, human IgG4 S228P, kappa)
heavy: not shown
light: B1 light with Q100A
chain: B9 chain
notes: one-armed (OA) antibody, constant domain type E
B11: mAb0099(OA) (antibody, human IgG4 S228P, kappa)
heavy: DVQLQESGPGLVEPSQSLSLTCTVTGYSITSDSAWSWIRQFPGNKLEWMGYIQYSGSTNYNPSLKSRISVTRDTSKNQFFLRLSSVTAEDTATYYCTRSVNYYGNSFAVGYWGQGTSVTVSSASTKGPSVFPLAPCSRSTSESTAALGCLVKDYFPEPVTVSWNSGALTSGVHTFPAVLQSSGLYSLSSVVTVPSSSLGTKTYTCNVDHKPSNTKVDKRVESKYGPPCPPCPAPEFLGGPSVFLFPPKPKDTLMISRTPEVTCVVVDVSQEDPEVQFNWYVDGVEVHNAKTKPREEQFNSTYRVVSVLTVLHQDWLNGKEYKCKVSNKGLPSSIEKTISKAKGQPREPQVYTLPPSQEEMTKNQVSLSCAVKGFYPSDIAVEWESNGQPENNYKTTPPVLDSDGSFFLVSRLTVDKSRWQEGNVFSCSVMHEALHNHYTQKSLSLSLGK
light: B9 light
chain: not shown
B12: mAb0141(OA) (antibody, human IgG4 S228P, kappa)
heavy: not shown
light: B1 light with Q100A
chain: B9 chain
notes: as for B10
B13: mAb0142(OA) (antibody, human IgG4 S228P, kappa)
heavy: not shown
light: B1 light with D31S, Q100A
chain: B9 chain
notes: as for B10
B14: mAb0140(OA) (antibody, human IgG4 S228P, kappa)
heavy: not shown
light: B1 light with Q100A
chain: B9 chain
notes: as for B10
B15: mAb0143(OA) (antibody, human IgG4 S228P, kappa)
heavy: not shown
light: B1 light with V83F, Q100A
chain: B9 chain
notes: as for B10
B16: biAb0245 (bispecific antibody, human IgG4 S228P, kappa)
heavy 1: DVQLQESGPGLVKPSQTLSLTCTVSGYSISSDSAWSWIRQPPGKGLEWIGYIQYSGSTNYNPSLKSRVTISRDTSKNQFSLKLSSVTAADTAVYYCARSVNYYGNSFWVDPWGQGTLVTVSSASTKGPSVFPLAPCSRSTSESTAALGCLVKDYFPEPVTVSWNSGALTSGVHTFPAVLQSSGLYSLSSVVTVPSSSLGTKTYTCNVDHKPSNTKVDKRVESKYGPPCPPCPAPEFLGGPSVFLFPPKPKDTLMISRTPEVTCVVVDVSQEDPEVQFNWYVDGVEVHNAKTKPREEQFNSTYRVVSVLTVLHQDWLNGKEYKCKVSNKGLPSSIEKTISKAKGQPREPQVYTLPPSQEEMTKNQVSLTCLVKGFYPSDIAVEWESNGQPENNYKTTPPVLDSDGSFLLYSKLTVDKSRWQEGNVFSCSVMHEALHNHYTQKSLSLSLGK
light 1: B9 light
heavy 2: not shown
light 2: DIVMTQTPLSSPVTLGQPASISCRSSQSLVHRQGNTYFHWLQQRPGQPPRLLIYKVSNRFSGVPDRFSGSGAGTDFTLKISRVEAEDVGVYYCSQSTHVPYTFGQGTKLEIKRTVAAPSVFIFPPSDEQLKSGTASVVCLLNNFYPREAKVQWKVDNALQSGNSQESVTEQDSKDSTYSLSSTLTLSKADYEKHKVYACEVTHQGLSSPVTKSFNRGEC
notes: also called anti-FVII(a)/anti-TLT-1 bispecific antibody of mAb0873 and mAb1076
B17: biAb0001 (bispecific antibody, human IgG4 S228P, kappa)
heavy 1: B16 heavy 1 with D1Q, W108A, D110G, P111Y
light 1: B1 light with V83F, G84A, L106I
heavy 2: not shown
light 2: B16 light 2
notes: also called anti-FVII(a)/anti-TLT-1 bispecific antibody of mAb0865 and mAb1076

One experiment concerns the target T1, recombinant human activated Factor VII (FVIIa) (human, UniProt P08709 61-212; P08709 213-466, Gla domain: ten glutamate residues may be gamma-carboxylated).
T1 construct: two-chain form after cleavage between Arg152 and Ile153; light chain (Gla, EGF domains) and heavy chain (protease domain) tethered by a disulfide bond; also called rFVIIa; human FVIIa
T1 sequence 1: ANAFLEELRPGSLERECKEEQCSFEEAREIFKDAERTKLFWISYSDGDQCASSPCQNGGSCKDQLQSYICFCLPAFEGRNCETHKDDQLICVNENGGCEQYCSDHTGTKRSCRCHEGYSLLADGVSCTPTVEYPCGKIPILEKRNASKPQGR
T1 sequence 2: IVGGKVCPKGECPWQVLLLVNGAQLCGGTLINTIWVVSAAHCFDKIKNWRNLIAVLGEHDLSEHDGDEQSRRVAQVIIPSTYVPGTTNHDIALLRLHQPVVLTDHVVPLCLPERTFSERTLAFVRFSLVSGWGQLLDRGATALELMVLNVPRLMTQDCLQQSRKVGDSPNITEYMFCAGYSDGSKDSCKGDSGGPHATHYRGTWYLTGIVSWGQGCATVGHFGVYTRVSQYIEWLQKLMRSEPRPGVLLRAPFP
Put plainly: Bio-Layer Interferometry (Fortebio), antibody on anti-human tips, FVIIa 25-200 nM. How it is done: All steps were performed in running buffer (20 mM HEPES buffer (pH 7.4), 150 mM NaCl, 5 mM CaCl2, 0.03% Tween 20, 1 mg/ml IgG-free BSA) at […] Antibodies were captured on anti-human tips (AHC, Fortebio) for 3 min at a concentration of 10 ug/ml. This was followed by a 3 min incubation to establish a baseline. Following this, association was monitored for 3 min using four different concentrations of VIIa (25 nm, 50 nM, 100 nM, and 200 nM), followed by a 3 mi dissociation. Sensorgrams were analysed using Fortebio data analysis software.
Turning to B1, the Kd was 1.7 nM.
For the molecule B2, the Kd worked out at 1.7 nM.
With B3, the dissociation constant Kd was found to be 5.8 nM.
With B4, the Kd was 1.8 nM.
Turning to B5, the Kd worked out at 1.8 nM.
With B6, the Kd worked out at 2.5 nM.
As to B7, the Kd was 1.7 nM.
As to B8, the equilibrium dissociation constant (Kd) was determined as 2.2 nM.

The target of a further experiment is T2, recombinant human activated Factor VII (FVIIa) (human, UniProt P08709 61-212; P08709 213-466, ten glutamate residues of the Gla domain may be gamma-carboxylated).
T2 sequence 1: T1 sequence 1
T2 sequence 2: T1 sequence 2
Put plainly: cell-based or functional assay.
For B9, the “AT inhibition (kinh %)” value is 119% and the “TGT activity (%% FVIIa)” value amounted to 103%.
On the same counts, the results for B10 are 105% and 99%.
As to B11, the “AT inhibition (kinh %)” value was found to be 117% and the “TGT activity (%% FVIIa)” value came to 98%.
As to B12, the “AT inhibition (kinh %)” value stood at 109% and the “TGT activity (%% FVIIa)” value came out at 103%.
Consider B13, for which the “AT inhibition (kinh %)” value amounted to 114% and the “TGT activity (%% FVIIa)” value was found to be 106%.
Take B14: the “AT inhibition (kinh %)” value was determined as 106% and the “TGT activity (%% FVIIa)” value is 100%.
Take B15: the “AT inhibition (kinh %)” value came out at 109% and the “TGT activity (%% FVIIa)” value worked out at 107%.

The next experiment has as its target T2, recombinant human activated Factor VII …. In words: SPR (Biacore).
Take B9: the Kd is 0.041 nM.
Regarding B10, the dissociation constant Kd amounted to 0.13 nM.
Consider B16, for which the Kd was found to be 600 nM.
Regarding B11, the Kd came to 0.12 nM.
Regarding B12, the Kd amounted to 0.078 nM.
The same measure, in the same setting: the figure for B13 is 1 nM; for B14 it is 0.083 nM.
Still for that read-out and setting: the figure for B15 is 0.079 nM; for B17 it is 0.06 nM.

(Values after US20220064329A1 (Novo Nordisk, published 2022).)
